Results reported in patent publication CN110606891A (L&L BIOPHARMA CO LTD, dated 2019).

B1: Ab66 (L21, H61, hIgG1 Fc S239D/A330L/I332E) (antibody)
heavy: QVQLVQSGAEVKKPGSSVKVSCKASGYAFSNYLIEWVRQAPGQGLEWMGLINPGSGGTNYNEKFKGKVTITADKSTSTAYMELSSLRSEDTAVYYCARVYYGNTFAYWGQGTLVTVSSASTKGPSVFPLAPSSKSTSGGTAALGCLVKDYFPEPVTVSWNSGALTSGVHTFPAVLQSSGLYSLSSVVTVPSSSLGTQTYICNVNHKPSNTKVDKKVEPKSCDKTHTCPPCPAPELLGGPDVFLFPPKPKDTLMISRTPEVTCVVVDVSHEDPEVKFNWYVDGVEVHNAKTKPREEQYNSTYRVVSVLTVLHQDWLNGKEYKCKVSNKALPLPEEKTISKAKGQPREPQVYTLPPSRDELTKNQVSLTCLVKGFYPSDIAVEWESNGQPENNYKTTPPVLDSDGSFFLYSKLTVDKSRWQQGNVFSCSVMHEALHNHYTQKSLSLSPGK
light: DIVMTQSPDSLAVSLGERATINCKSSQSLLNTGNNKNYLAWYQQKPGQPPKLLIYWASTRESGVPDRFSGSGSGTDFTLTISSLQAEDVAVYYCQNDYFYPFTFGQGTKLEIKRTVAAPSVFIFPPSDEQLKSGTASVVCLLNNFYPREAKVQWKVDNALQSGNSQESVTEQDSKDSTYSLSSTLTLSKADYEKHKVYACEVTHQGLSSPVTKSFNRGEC
B2: Ab36抗体 (antibody, human IgG1, kappa, V domains shown)
VH: QVQLVQSGAEVKKPGSSVKVSCKASGYAFSNYLIEWVKQAPGQGLEWIGLINPGSGGTNYNEKFKGKATITADKSTSTAYMELSSLRSEDTAVYYCARVYYGNTFAYWGQGTLVTVSS
VL: DIVMTQSPDSLAVSLGERATISCKSSQSLLNTGNNKNYLAWYQQKPGQPPKLLIYWASTRESGVPDRFSGSGSGTDFTLTISSLQAEDVAVYYCQNDYFYPFTFGQGTKLEIKR
notes: Ab6 with NS->NT in light CDR1 and heavy CDR3; hIgG1 / kappa
B3: Ab51抗体 (antibody, human IgG1, kappa, V domains shown)
VH: QVQLVQSGAEVKKPGSSVKVSCKASGYAFSNYLIEWVRQAPGQGLEWMGLINPGSGGTNYNEKFKGRVTITADESTSTAYMELSSLRSEDTAVYYCARVYYGNTFAYWGQGTLVTVSS
VL: DIVMTQSPDSLAVSLGERATINCKSSQSLLNTGNNKNYLAWYQQKPGQPPKLLIYWASTRESGVPDRFSGSGSGTDFTLTISSLQAEDVAVYYCQNDYFYPFTFGQGTKLEIKR
notes: hIgG1 (DEL) / kappa; also called L21/H64 DEL
B4: 人源化Ab10抗体 (antibody, human IgG1, kappa, V domains shown)
VH: QVQLVQSGAEVKKPGSSVKVSCKASGYAFSNYLIEWVKQAPGQGLEWIGLINPGSGGTNYNEKFKGKATITADKSTSTAYMELSSLRSEDTAVYYCARVYYGNSFAYWGQGTLVTVSS
VL: DIVMTQSPDSLAVSLGERATISCKSSQSLLNSGNQKNYLTWYQQKPGQPPKLLIYWASTRESGVPDRFSGSGSGTDFTLTISSLQAEDVAVYYCQNDYFYPFTFGQGTKLEIKR
notes: Humanized, hIgG1 (356-358 DEL) / kappa; also called L14/H51
B5: Ab60 (L12, H51, hIgG1 Fc S239D/A330L/I332E) (antibody)
heavy: QVQLVQSGAEVKKPGSSVKVSCKASGYAFSNYLIEWVKQAPGQGLEWIGLINPGSGGTNYNEKFKGKATITADKSTSTAYMELSSLRSEDTAVYYCARVYYGNSFAYWGQGTLVTVSSASTKGPSVFPLAPSSKSTSGGTAALGCLVKDYFPEPVTVSWNSGALTSGVHTFPAVLQSSGLYSLSSVVTVPSSSLGTQTYICNVNHKPSNTKVDKKVEPKSCDKTHTCPPCPAPELLGGPDVFLFPPKPKDTLMISRTPEVTCVVVDVSHEDPEVKFNWYVDGVEVHNAKTKPREEQYNSTYRVVSVLTVLHQDWLNGKEYKCKVSNKALPLPEEKTISKAKGQPREPQVYTLPPSRDELTKNQVSLTCLVKGFYPSDIAVEWESNGQPENNYKTTPPVLDSDGSFFLYSKLTVDKSRWQQGNVFSCSVMHEALHNHYTQKSLSLSPGK
light: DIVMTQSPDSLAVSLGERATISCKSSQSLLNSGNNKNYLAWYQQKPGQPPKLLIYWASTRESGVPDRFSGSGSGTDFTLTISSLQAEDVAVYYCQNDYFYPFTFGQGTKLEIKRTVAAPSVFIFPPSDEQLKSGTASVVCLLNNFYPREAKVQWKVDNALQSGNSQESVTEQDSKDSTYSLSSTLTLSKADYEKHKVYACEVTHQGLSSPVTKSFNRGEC
B6: mab1 (初始杂交瘤克隆 F2A4, 上清) (antibody, V domains shown)
VH: EVQLLESGGGLVQPGGSLRLSCAASGFTFSSYGMGWVRQAPGKGLEWVAAITRDSSTNYGAAVKGRATISRDNSKNTLYLQMNSLRAEDTAVYYCAKDASNGYCWYTGRGSYSCGAHHIDAWGQGTLVTVSS
VL: SYELTQPPSVSVSPGQTARITCSGGYNGHYGWYQQKPGQAPVTVIYSNNQRPSGIPERFSGSSSGTTVTLTISGVQAEDEADYYCGGYDSSAGIFGGGTKLTVL
B7: anti-hCLDN18.2抗体mab5b (重组表达) (antibody, human IgG1, kappa, V domains shown)
VH: QVQLQQSGAELIGPGTSVKVSCKASGYAFSNYLIEWVKQRPEQGLEWIGLINPGSGGTNYNEKFKGKATLTADKSSSTAYMQLSSLTSDDSAVYFCARVYYGNSFAYWGQGTLVTVSA
VL: DIVMTQSPSSLTVTAGEKVTMSCKSSQSLLNSGNQKNYLTWYQQKPGQPPKLLIYWASTRESGVPDRFTGSGSGTHFTLTISSVQAEDLAVYYCQNDYFYPFTFGSGTKLEKKR
notes: also called 鼠源抗体mab5b
B8: mab2 (初始杂交瘤克隆 F6B1, 上清) (antibody, V domains shown)
VH: EVQLLESGGGLVQPGGSLRLSCAASGFTFSSYGMSWVRQAPGKGLEWVAGIGSSGSDTWYADSVKGRFTISRDNSKNTLYLQMNSLRAEDTAVYYCAKDATNGYCWYTGRGSYSCGAHHIDAWGQGTLVTVSS
VL: SYELTQPPSVSVSPGQTARITCSGGSGSYGYYGWYQQKPGQAPVTVIYGTNKRPSGIPERFSGSSSGTTVTLTISGVQAEDEADYYCGGYDSSAGIFGGGTKLTVL
B9: mab3 (初始杂交瘤克隆 C6F9, 上清) (antibody, V domains shown)
VH: EVQLLESGGGLVQPGGSLRLSCAASGFTFRSYAMMWVRQAPGKGLEWVGEISSTGGSTYYGSAVKGRATISRDNSKNTLYLQMNSLRAEDTAVYYCAKSTYGATWKSADSIDAWGQGTLVTVSS
VL: SYELTQPPSVSVSPGQTARITCSGGYNGHYGWYQQKPGQAPVLVIYSNNQRPSGIPERFSGSSSGTTVTLTISGVQAEDEADYYCGGYDSSAGIFGGGTKLTVL
B10: Ab22 (轻链CDR1 NS-> TS, 重链 CDR3 NS-> NT) (antibody, V domains shown)
VH: EVMLVESGGGLVKPGGSLKLSCAASGFTFSSYTMSWVRQTPEKRLEWVATIIGGYGNTYYADSVKGRFTISRDSAKNTLYLQMISLRSEDTALYYCTRLGQTQRNAMDYWGQGTSVTVSS
VL: DILMTQSPSSLSVSAGEKVTMSCKSSQSLLNSGNQKNYLAWYQQKPGQPPKLLIYGASTRESGVPDTFTGSGSGTDFTLTISSVQAEDLAVYYCQNDYYYPFTFGAGTKLEL

Experiments:
[1] = biological target: T1, 人CLDN18.2 (hCLDN18.2), claudin-18 isoform 2 [Homo sapiens], NP_001002026.1 (human); assay: cell-based or functional assay
[2] = biological target: T2, 鼠CLDN18.2 (mCLDN18.2), claudin-18 isoform A2.1 [Mus musculus], NP_001181850.1 (mouse, UniProt P56857 10-264); assay: cell ELISA on mCLDN18.2+ cells (Table 23)
T2 construct: also called 鼠CLDN18.2+细胞; mCLDN18.2+ cell
T2 chain: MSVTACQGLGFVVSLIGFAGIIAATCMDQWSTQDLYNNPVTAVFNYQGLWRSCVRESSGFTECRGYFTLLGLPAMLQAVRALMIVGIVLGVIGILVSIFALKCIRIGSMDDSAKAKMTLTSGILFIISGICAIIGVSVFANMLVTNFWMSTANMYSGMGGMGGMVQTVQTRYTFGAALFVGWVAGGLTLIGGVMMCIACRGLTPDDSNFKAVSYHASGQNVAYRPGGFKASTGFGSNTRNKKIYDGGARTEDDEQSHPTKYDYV

[3] = biological target: T3, 鼠CLDN18.1 (mCLDN18.1), claudin-18 isoform A1.1 precursor, NP_062789.1 (mouse, UniProt P56857 1-264); assay: cell ELISA on mCLDN18.1+ cells
T3 construct: also called 鼠CLDN18.1+ 细胞; mCLDN18.1+ cell
T3 sequence: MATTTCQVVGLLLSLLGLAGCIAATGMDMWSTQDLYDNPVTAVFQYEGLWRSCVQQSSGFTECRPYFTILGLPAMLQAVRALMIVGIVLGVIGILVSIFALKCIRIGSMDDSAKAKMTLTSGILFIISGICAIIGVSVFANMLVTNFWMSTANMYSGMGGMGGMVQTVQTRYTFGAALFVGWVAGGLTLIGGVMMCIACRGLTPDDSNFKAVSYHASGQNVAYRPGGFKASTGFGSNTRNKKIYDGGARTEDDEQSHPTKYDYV

[4] = biological target: T4, 人CLDN18.1 (hCLDN18.1), claudin-18 isoform 1 precursor [Homo sapiens], NP_057453.1 (human, UniProt P56856 1-261); assay: cell ELISA on hCLDN18.1+ cells
T4 construct: No signal peptide limits stated for this entry; also called 人CLDN18.1+ 细胞; hCLDN18.1+ cell
T4 sequence: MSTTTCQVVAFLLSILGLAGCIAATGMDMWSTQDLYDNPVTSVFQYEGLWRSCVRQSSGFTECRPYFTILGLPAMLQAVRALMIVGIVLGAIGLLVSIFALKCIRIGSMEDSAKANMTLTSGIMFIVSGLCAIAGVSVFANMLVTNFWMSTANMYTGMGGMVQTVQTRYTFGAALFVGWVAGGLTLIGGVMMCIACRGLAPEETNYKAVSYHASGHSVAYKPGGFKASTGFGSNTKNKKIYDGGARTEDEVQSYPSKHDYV

[5] = biological target: T4, 人CLDN18.1 (hCLDN18.1), claudin-18 …; assay: cell ELISA, hybridoma supernatant on hCLDN18.1+ cells
[6] = biological target: T1, 人CLDN18.2 (hCLDN18.2), claudin-18 …; assay: cell ELISA, hybridoma supernatant on hCLDN18.2+ cells
[7] = biological target: T2, 鼠CLDN18.2 (mCLDN18.2), claudin-18 …; assay: cell ELISA on mCLDN18.2+ cells
[8] = biological target: T2, 鼠CLDN18.2 (mCLDN18.2), claudin-18 …; assay: cell ELISA on mCLDN18.2+ cells, against Ref
[9] = biological target: T1, 人CLDN18.2 (hCLDN18.2), claudin-18 …; assay: cell ELISA on hCLDN18.2+ cells (Table 16a)

Binder | CDC EC50 (人血清补体对hCLDN18.2+细胞, LDH) [1] [µg/mL] | EC50 [2] [pM] | Emax [2] | binding result [3] | 结合活性 (ELISA) [5] | 结合活性 (ELISA) [6] | other results
B1 | 0.927 |  |  |  |  |  | 
B2 | 1.75 | 518 | 2.18 | no binding |  |  | 
B3 | 2.12 | 474 | 1.91 | no binding |  |  | 
B4 |  | 371 | 2.27 | no binding |  |  | binding result [4]: no binding
B5 | 0.973 |  |  |  |  |  | ADCC EC50 (PBMC对hCLDN18.2+细胞, LDH) [1]: 0.431 µg/mL
B6 |  |  |  |  | 1.19 | 1.62 | 
B7 |  | 375 | 2.17 |  |  |  | EC50 [7]: 182 pM; 结合活性 (EC50) 比Ref好的倍数 [8]: > 4 倍
B8 |  |  |  |  | 0.123 | 0.176 | 
B9 |  |  |  |  | 0.448 | 0.671 | 
B10 |  |  |  |  |  |  | EC50 [9]: 1370 pM
